Laboratory results as given in patent publication US20130071424A1.

How the values were obtained:
[1] = biological target: AIDSVAX recombinant gp120 immunogen A244 (AIDSVAX subtype E) (HIV-1 subtype E (CRF01_AE) strain A244); test: ELISA, gp120 coated at 3 µg/ml, antibody titrated 0.002-10 µg/ml
[2] = biological target: AIDSVAX recombinant gp120 immunogen MN (AIDSVAX subtype B) (HIV-1 subtype B strain MN) (UniProt P05877); test: as above

| Substance | EC50 [1] | EC50 [2] |
| --- | --- | --- |
| human anti-V2 monoclonal antibody 2158 | 4.1 ng/mL | 3.9 ng/mL |
| human anti-V2 monoclonal antibody 697-D | 5.7 ng/mL | 5.5 ng/mL |
